In US20230118307A1, “THERAPEUTIC USE OF LONG-ACTING CONJUGATE OF TRIPLE AGONIST HAVING ACTIVITIES TO ALL OF GLUCAGON/GLP-1/GIP RECEPTORS FOR LUNG DISEASE” (HANMI PHARM. CO., LTD., priority 2020, published 2023):
Positions of bridges follow the written chain, without caps; N, C: chain ends. Non-standard residues stand in square brackets, D forms with d. No end group written: not given here. *: point of attachment. Acetyl(2-(4-imidazolyl)) = O=C(Cc1c[nH]cn1)*; Aib = CC(C)(N)C(=O)O

biological target: human GLP-1 receptor (human, UniProt P43220 24-463); experiment: cell-based or functional assay

Compared with Y[Aib]QGTFTSDYSKYLDEKAAKEFVQWLLDHHPSSGQPPPSC (bridge 16-20) [triple agonist of SEQ ID NO: 75], [Acetyl(2-(4-imidazolyl))][Aib]QGTFTSDYSKYLDEKRQKEFVQWLLDTC (bridge 16-20) [triple agonist of SEQ ID NO: 82] is lower in “In vitro Activity Compared to Native Peptide (%) vs. GLP-1” value: 35.1% for the first, 9.5% for the second.

Going from H[Aib]QGTFTSDVSKYLDGQAAQEFVAWLLAGC [triple agonist of SEQ ID NO: 9] to Y[Aib]QGTFTSDYSKCLDERAAKEFVQWLLDHHPSSGQPPPS (bridge 16-20) [triple agonist of SEQ ID NO: 69], the “In vitro Activity Compared to Native Peptide (%) vs. GLP-1” value falls from 32.1% to 24.3%.

First: H[Aib]QGTFTSDYSKYLDEKRQKEFVQWLLDTKC (bridge 16-20) [triple agonist of SEQ ID NO: 78]
Second: Y[Aib]QGTFTSDYSKCLDEKRAKDFVQWLLDHHPSSGQPPPS (bridge 16-20) [triple agonist of SEQ ID NO: 70]
The “In vitro Activity Compared to Native Peptide (%) vs. GLP-1” value of the first is higher: 51% for the first, 15.1% for the second.

Compared with {Acetyl(2-(4-imidazolyl))}-[Aib]QGTFTSDYSIAMDEIACKDFVNWLLNTK (bridge 15-19) [triple agonist of SEQ ID NO: 61], Y[Aib]QGTFTSDYSKYLDECAAKEFVQWLLDHHPSSGQPPPS (bridge 16-20) [triple agonist of SEQ ID NO: 64] is higher in “In vitro Activity Compared to Native Peptide (%) vs. GLP-1” value: 59.8% for the first, 64.6% for the second.

Compared with H[Aib]EGTFTSDYSIAMDEIHQKDFVNWLLAQKC (bridge 16-20) [triple agonist of SEQ ID NO: 79], Y[Aib]QGTFTSDYSKYLDECAAKDFVQWLLDHHPSSGQPPPS (bridge 16-20) [triple agonist of SEQ ID NO: 67] is lower in “In vitro Activity Compared to Native Peptide (%) vs. GLP-1” value: 41.5% for the first, 28.5% for the second.

First: Y[Aib]QGTFTSDYSKYLDEKAAKDFVQWLLDHHPSSGQPPPSC (bridge 16-20) [triple agonist of SEQ ID NO: 77]
Second: [Acetyl(2-(4-imidazolyl))][Aib]EGTFTSDYSIAMDEIHQKDFVDWLLAEC (bridge 16-20) [triple agonist of SEQ ID NO: 84]
The “In vitro Activity Compared to Native Peptide (%) vs. GLP-1” value of the first is higher: 38.7% for the first, 4.2% for the second.

First: [Acetyl(2-(4-imidazolyl))][Aib]QGTFTSDYSKYLDEKRQKEFVQWLLNTC (bridge 16-20) [triple agonist of SEQ ID NO: 81]
Second: [Acetyl(2-(4-imidazolyl))][Aib]QGTFTSDYSIAMDEIHQKDFVNWLLAQC (bridge 16-20) [triple agonist of SEQ ID NO: 85]
The “In vitro Activity Compared to Native Peptide (%) vs. GLP-1” value of the first is higher: 7.8% for the first, 4.3% for the second.

biological target: human GCG receptor (human, UniProt P47871 26-477); experiment: cell-based or functional assay
Sequence (P47871 26-477): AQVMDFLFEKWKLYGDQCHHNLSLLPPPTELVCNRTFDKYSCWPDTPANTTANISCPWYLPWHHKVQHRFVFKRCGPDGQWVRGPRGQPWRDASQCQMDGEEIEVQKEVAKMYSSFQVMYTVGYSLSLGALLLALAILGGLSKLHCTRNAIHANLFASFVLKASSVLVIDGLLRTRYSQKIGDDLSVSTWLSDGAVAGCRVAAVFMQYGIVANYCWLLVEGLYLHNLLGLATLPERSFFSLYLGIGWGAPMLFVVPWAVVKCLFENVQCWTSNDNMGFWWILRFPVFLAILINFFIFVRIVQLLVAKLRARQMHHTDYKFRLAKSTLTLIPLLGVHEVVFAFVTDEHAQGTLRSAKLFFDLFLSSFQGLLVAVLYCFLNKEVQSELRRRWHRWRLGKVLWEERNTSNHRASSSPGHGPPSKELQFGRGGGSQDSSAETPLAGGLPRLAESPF

Compared with Y[Aib]QGTFTSDYSKYLDEKAAKEFVQWLLDHHPSSGQPPPSC (bridge 16-20) [triple agonist of SEQ ID NO: 75], [Acetyl(2-(4-imidazolyl))][Aib]QGTFTSDYSKYLDEKRQKEFVQWLLDTC (bridge 16-20) [triple agonist of SEQ ID NO: 82] is lower in “In vitro Activity Compared to Native Peptide (%) vs. Glucagon” value: 8.5% for the first, 1.1% for the second.

Going from H[Aib]QGTFTSDVSKYLDGQAAQEFVAWLLAGC [triple agonist of SEQ ID NO: 9] to Y[Aib]QGTFTSDYSKCLDERAAKEFVQWLLDHHPSSGQPPPS (bridge 16-20) [triple agonist of SEQ ID NO: 69], the “In vitro Activity Compared to Native Peptide (%) vs. Glucagon” value rises from 0.13% to 9.6%.

Compared with H[Aib]QGTFTSDYSKYLDEKRQKEFVQWLLDTKC (bridge 16-20) [triple agonist of SEQ ID NO: 78], Y[Aib]QGTFTSDYSKCLDEKRAKDFVQWLLDHHPSSGQPPPS (bridge 16-20) [triple agonist of SEQ ID NO: 70] is higher in “In vitro Activity Compared to Native Peptide (%) vs. Glucagon” value: 14% for the first, 71.3% for the second.

Compared with {Acetyl(2-(4-imidazolyl))}-[Aib]QGTFTSDYSIAMDEIACKDFVNWLLNTK (bridge 15-19) [triple agonist of SEQ ID NO: 61], Y[Aib]QGTFTSDYSKYLDECAAKEFVQWLLDHHPSSGQPPPS (bridge 16-20) [triple agonist of SEQ ID NO: 64] is higher in “In vitro Activity Compared to Native Peptide (%) vs. Glucagon” value: < 0.1% for the first, 60.1% for the second.

First: H[Aib]EGTFTSDYSIAMDEIHQKDFVNWLLAQKC (bridge 16-20) [triple agonist of SEQ ID NO: 79]
Second: Y[Aib]QGTFTSDYSKYLDECAAKDFVQWLLDHHPSSGQPPPS (bridge 16-20) [triple agonist of SEQ ID NO: 67]
The “In vitro Activity Compared to Native Peptide (%) vs. Glucagon” value of the first is lower: 4.9% for the first, 46.2% for the second.

Compared with Y[Aib]QGTFTSDYSKYLDEKAAKDFVQWLLDHHPSSGQPPPSC (bridge 16-20) [triple agonist of SEQ ID NO: 77], [Acetyl(2-(4-imidazolyl))][Aib]EGTFTSDYSIAMDEIHQKDFVDWLLAEC (bridge 16-20) [triple agonist of SEQ ID NO: 84] is lower in “In vitro Activity Compared to Native Peptide (%) vs. Glucagon” value: 12.2% for the first, < 0.1% for the second.

First: [Acetyl(2-(4-imidazolyl))][Aib]QGTFTSDYSKYLDEKRQKEFVQWLLNTC (bridge 16-20) [triple agonist of SEQ ID NO: 81]
Second: [Acetyl(2-(4-imidazolyl))][Aib]QGTFTSDYSIAMDEIHQKDFVNWLLAQC (bridge 16-20) [triple agonist of SEQ ID NO: 85]
The “In vitro Activity Compared to Native Peptide (%) vs. Glucagon” value of the first is higher: 0.3% for the first, < 0.1% for the second.

biological target: T1, human GIP receptor (human, UniProt P48546 22-466); experiment: cell-based or functional assay
T1 sequence (looked up): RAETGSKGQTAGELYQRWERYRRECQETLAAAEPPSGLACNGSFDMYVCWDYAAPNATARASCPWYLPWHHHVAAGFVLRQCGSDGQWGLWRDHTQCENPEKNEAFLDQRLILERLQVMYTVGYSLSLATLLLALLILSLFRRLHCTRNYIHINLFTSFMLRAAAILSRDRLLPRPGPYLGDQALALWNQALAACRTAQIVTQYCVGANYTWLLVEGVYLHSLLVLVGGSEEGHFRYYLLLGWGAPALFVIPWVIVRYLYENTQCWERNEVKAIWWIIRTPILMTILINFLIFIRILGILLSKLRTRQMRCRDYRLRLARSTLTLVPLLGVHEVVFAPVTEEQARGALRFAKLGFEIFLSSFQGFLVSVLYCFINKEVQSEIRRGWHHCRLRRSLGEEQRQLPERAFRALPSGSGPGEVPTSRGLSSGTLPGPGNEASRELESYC

Compared with Y[Aib]QGTFTSDYSKYLDEKAAKEFVQWLLDHHPSSGQPPPSC (bridge 16-20) [triple agonist of SEQ ID NO: 75], [Acetyl(2-(4-imidazolyl))][Aib]QGTFTSDYSKYLDEKRQKEFVQWLLDTC (bridge 16-20) [triple agonist of SEQ ID NO: 82] is lower in “In vitro Activity Compared to Native Peptide (%) vs. GIP” value: 18% for the first, < 0.1% for the second.

Compared with H[Aib]QGTFTSDVSKYLDGQAAQEFVAWLLAGC [triple agonist of SEQ ID NO: 9], Y[Aib]QGTFTSDYSKCLDERAAKEFVQWLLDHHPSSGQPPPS (bridge 16-20) [triple agonist of SEQ ID NO: 69] is higher in “In vitro Activity Compared to Native Peptide (%) vs. GIP” value: < 0.1% for the first, 62.8% for the second.

First: H[Aib]QGTFTSDYSKYLDEKRQKEFVQWLLDTKC (bridge 16-20) [triple agonist of SEQ ID NO: 78]
Second: Y[Aib]QGTFTSDYSKCLDEKRAKDFVQWLLDHHPSSGQPPPS (bridge 16-20) [triple agonist of SEQ ID NO: 70]
The “In vitro Activity Compared to Native Peptide (%) vs. GIP” value of the first is lower: 0.12% for the first, 64.4% for the second.

Going from {Acetyl(2-(4-imidazolyl))}-[Aib]QGTFTSDYSIAMDEIACKDFVNWLLNTK (bridge 15-19) [triple agonist of SEQ ID NO: 61] to Y[Aib]QGTFTSDYSKYLDECAAKEFVQWLLDHHPSSGQPPPS (bridge 16-20) [triple agonist of SEQ ID NO: 64], the “In vitro Activity Compared to Native Peptide (%) vs. GIP” value rises from 2.8% to 92.9%.

First: H[Aib]EGTFTSDYSIAMDEIHQKDFVNWLLAQKC (bridge 16-20) [triple agonist of SEQ ID NO: 79]
Second: Y[Aib]QGTFTSDYSKYLDECAAKDFVQWLLDHHPSSGQPPPS (bridge 16-20) [triple agonist of SEQ ID NO: 67]
The “In vitro Activity Compared to Native Peptide (%) vs. GIP” value of the first is lower: 1.4% for the first, 39.8% for the second.

Compared with Y[Aib]QGTFTSDYSKYLDEKAAKDFVQWLLDHHPSSGQPPPSC (bridge 16-20) [triple agonist of SEQ ID NO: 77], [Acetyl(2-(4-imidazolyl))][Aib]EGTFTSDYSIAMDEIHQKDFVDWLLAEC (bridge 16-20) [triple agonist of SEQ ID NO: 84] is lower in “In vitro Activity Compared to Native Peptide (%) vs. GIP” value: 35.5% for the first, < 0.1% for the second.

Compared with [Acetyl(2-(4-imidazolyl))][Aib]QGTFTSDYSKYLDEKRQKEFVQWLLNTC (bridge 16-20) [triple agonist of SEQ ID NO: 81], [Acetyl(2-(4-imidazolyl))][Aib]QGTFTSDYSIAMDEIHQKDFVNWLLAQC (bridge 16-20) [triple agonist of SEQ ID NO: 85] is higher in “In vitro Activity Compared to Native Peptide (%) vs. GIP” value: < 0.1% for the first, 0.3% for the second.
